Each block holds one binder with its values, some of them ahead of it.
Columns and labels:
Settings in all cases: partners not purified
hMis12-(s)-mCherry = biological target: T1, hMis12-(s)-mCherry (human, UniProt Q9H081 1-205); assay: dual color fluorescence cross-correlation spectroscopy (DC-FCCS); EGFP and mCherry fusion proteins co-expressed in living interphase HEp-2 or U2OS cells; spots in the nucleoplasm free of kinetochores, focal volume bleached before; 37°C; 488 and 561 nm; corrected values are the measured ones times about two
T1 construct: hMis12, human; source: HEp-2 or U2OS cells, transfected by electroporation, in living cells; not shown: mCherry (short linker)
T1 sequence (looked up): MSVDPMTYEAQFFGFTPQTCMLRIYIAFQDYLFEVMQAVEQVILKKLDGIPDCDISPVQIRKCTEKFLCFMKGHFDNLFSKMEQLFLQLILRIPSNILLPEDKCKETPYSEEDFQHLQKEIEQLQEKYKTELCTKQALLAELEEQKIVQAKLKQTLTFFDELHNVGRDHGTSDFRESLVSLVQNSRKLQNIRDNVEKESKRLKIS

mCherry-(s)-Nsl1 = biological target: T2, mCherry-(s)-Nsl1 (human, UniProt Q96IY1 1-281); assay: as above
T2 construct: Nsl1 of the hMis12 complex, human; source: HEp-2 or U2OS cells, transfected by electroporation, in living cells
T2 sequence (looked up): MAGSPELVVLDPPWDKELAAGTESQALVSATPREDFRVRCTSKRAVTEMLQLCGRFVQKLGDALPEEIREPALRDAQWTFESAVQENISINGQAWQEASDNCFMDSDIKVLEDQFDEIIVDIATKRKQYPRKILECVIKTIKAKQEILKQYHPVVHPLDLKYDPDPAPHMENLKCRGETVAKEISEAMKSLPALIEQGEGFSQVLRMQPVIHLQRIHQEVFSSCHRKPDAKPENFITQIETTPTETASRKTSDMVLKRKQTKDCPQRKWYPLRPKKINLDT

mCherry-(s)-Nnf1 = biological target: T3, mCherry-(s)-Nnf1 (human, UniProt Q6P1K2 1-205); assay: as above
T3 construct: Nnf1 of the hMis12 complex, human; source: HEp-2 or U2OS cells, transfected by electroporation, in living cells
T3 sequence (looked up): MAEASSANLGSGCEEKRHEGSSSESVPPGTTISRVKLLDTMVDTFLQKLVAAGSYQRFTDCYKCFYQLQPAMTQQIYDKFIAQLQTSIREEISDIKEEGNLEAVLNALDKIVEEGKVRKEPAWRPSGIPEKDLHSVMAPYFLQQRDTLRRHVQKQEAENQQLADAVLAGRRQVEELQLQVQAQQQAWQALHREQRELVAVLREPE

mCherry-(s)-CENP-W = biological target: T4, mCherry-(s)-CENP-W (human, UniProt Q5EE01 1-88); assay: single-wavelength fluorescence cross-correlation spectroscopy (SW-FCCS); EGFP and mCherry fusion proteins co-expressed in living interphase HEK293 cells; nucleoplasm; 37°C; 514 nm; effective (apparent) Kd from scatter plot (S) or histogram (H), corrected for non-fluorescent mCherry and observation volumes
T4 construct: CENP-W, human; source: HEp-2 or U2OS cells (DC-FCCS) and HEK293 cells (SW-FCCS), transfected by electroporation, in living cells
T4 sequence (Q5EE01 whole entry, the tested form may be a part): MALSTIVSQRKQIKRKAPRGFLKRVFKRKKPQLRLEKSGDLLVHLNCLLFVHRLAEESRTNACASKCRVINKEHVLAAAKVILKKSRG

Nnf1-(s)-mCherry = biological target: T5, Nnf1-(s)-mCherry (human, UniProt Q6P1K2 1-205); assay: dual color fluorescence cross-correlation spectroscopy (DC-FCCS); EGFP and mCherry fusion proteins co-expressed in living interphase HEp-2 or U2OS cells; spots in the nucleoplasm free of kinetochores, focal volume bleached before; 37°C; 488 and 561 nm; corrected values are the measured ones times about two
T5 construct: Nnf1 of the hMis12 complex, human; source: HEp-2 or U2OS cells, transfected by electroporation, in living cells; not shown: mCherry (short linker)
T5 sequence (looked up): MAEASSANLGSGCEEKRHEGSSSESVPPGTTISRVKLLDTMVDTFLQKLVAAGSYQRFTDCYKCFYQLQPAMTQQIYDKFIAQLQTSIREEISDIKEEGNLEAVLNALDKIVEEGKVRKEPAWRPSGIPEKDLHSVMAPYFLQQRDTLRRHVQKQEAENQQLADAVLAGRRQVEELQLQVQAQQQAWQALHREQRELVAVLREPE

CENP-T-(s)-mCherry = biological target: T6, CENP-T-(s)-mCherry (human, UniProt Q96BT3 1-561); assay: as above
T6 construct: CENP-T, human; called full-length CENP-T against its N-terminal domain; source: HEp-2 or U2OS cells, transfected by electroporation, in living cells; not shown: mCherry (short linker)

mCherry-(s)-CENP-K = biological target: T7, mCherry-(s)-CENP-K (human, UniProt Q9BS16 1-269); assay: as above
T7 construct: CENP-K, human; also called mCherry-CENP-K; source: HEp-2 or U2OS cells, transfected by electroporation, in living cells
T7 sequence (Q9BS16 whole entry): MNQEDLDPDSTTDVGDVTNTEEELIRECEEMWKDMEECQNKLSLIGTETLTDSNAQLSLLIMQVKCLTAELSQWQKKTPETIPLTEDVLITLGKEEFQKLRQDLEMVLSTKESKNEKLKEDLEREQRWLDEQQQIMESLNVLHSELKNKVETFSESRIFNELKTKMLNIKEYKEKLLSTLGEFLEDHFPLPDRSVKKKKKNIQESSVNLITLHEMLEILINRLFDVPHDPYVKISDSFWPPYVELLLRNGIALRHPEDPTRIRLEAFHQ

mCherry-(s)-CENP-T = biological target: T8, mCherry-(s)-CENP-T (human, UniProt Q96BT3 1-561); assay: as above
T8 construct: CENP-T, human; called wildtype against CENP-T^∆N; source: HEp-2 or U2OS cells (DC-FCCS) and HEK293 cells (SW-FCCS), transfected by electroporation, in living cells

B1: EGFP-(s)-Dsn1 (natural protein, human, UniProt Q9H410 1-356, looked up)
chain: MTSVTRSEIIDEKGPVMSKTHDHQLESSLSPVEVFAKTSASLEMNQGVSEERIHLGSSPKKGGNCDLSHQERLQSKSLHLSPQEQSASYQDRRQSWRRASMKETNRRKSLHPIHQGITELSRSISVDLAESKRLGCLLLSSFQFSIQKLEPFLRDTKGFSLESFRAKASSLSEELKHFADGLETDGTLQKCFEDSNGKASDFSLEASVAEMKEYITKFSLERQTWDQLLLHYQQEAKEILSRGSTEAKITEVKVEPMTYLGSSQNEVLNTKPDYQKILQNQSKVFDCMELVMDELQGSVKQLQAFMDESTQCFQKVSVQLGKRSMQQLDPSPARKLLKLQLQNPPAIHGSGSGSCQ
notes: Dsn1 of the hMis12 complex, human; source: HEp-2 or U2OS cells, transfected by electroporation, in living cells
cross-correlation, measured (%) (hMis12-(s)-mCherry): 32%
cross-correlation, measured (%) (mCherry-(s)-Nsl1): 24%
cross-correlation, measured (%) (mCherry-(s)-Nnf1): 22%

B2: EGFP-(s)-CENP-T^∆N (domain or fragment, human, UniProt Q96BT3 396-561, looked up)
chain: ASPESASSTPESLQARRHHQFLEPAPAPGAAVLSSEPAEPLLVRHPPRPRTTGPRPRQDPHKAGLSHYVKLFSFYAKMPMERKALEMVEKCLDKYFQHLCDDLEVFAAHAGRKTVKPEDLELLMRRQGLVTDQVSLHVLVERHLPLEYRQLLIPCAYSGNSVFPAQ
notes: CENP-T, human, C-terminal domain, aas 396-561, said to contain the histone-fold domain (aas 376-561); also called EGFP-(s)-CENP-T^396-561; source: HEK293 cells, transfected by electroporation, in living cells
dimer, corrected (%) (mCherry-(s)-CENP-W): 24%
dimer, uncorrected (%) (mCherry-(s)-CENP-W): 18.2%

B3: EGFP-(s)-Nsl1 (natural protein, human, UniProt Q96IY1 1-281, looked up)
chain: MAGSPELVVLDPPWDKELAAGTESQALVSATPREDFRVRCTSKRAVTEMLQLCGRFVQKLGDALPEEIREPALRDAQWTFESAVQENISINGQAWQEASDNCFMDSDIKVLEDQFDEIIVDIATKRKQYPRKILECVIKTIKAKQEILKQYHPVVHPLDLKYDPDPAPHMENLKCRGETVAKEISEAMKSLPALIEQGEGFSQVLRMQPVIHLQRIHQEVFSSCHRKPDAKPENFITQIETTPTETASRKTSDMVLKRKQTKDCPQRKWYPLRPKKINLDT
notes: Nsl1 of the hMis12 complex, human; source: HEp-2 or U2OS cells, transfected by electroporation, in living cells
cross-correlation, measured (%) (mCherry-(s)-Nnf1): 18%

Results, then the binder that gave them:

cross-correlation, measured (%) (hMis12-(s)-mCherry): 36%
B4: Nsl1-(s)-EGFP (natural protein, human, UniProt Q96IY1 1-281, looked up)
chain: MAGSPELVVLDPPWDKELAAGTESQALVSATPREDFRVRCTSKRAVTEMLQLCGRFVQKLGDALPEEIREPALRDAQWTFESAVQENISINGQAWQEASDNCFMDSDIKVLEDQFDEIIVDIATKRKQYPRKILECVIKTIKAKQEILKQYHPVVHPLDLKYDPDPAPHMENLKCRGETVAKEISEAMKSLPALIEQGEGFSQVLRMQPVIHLQRIHQEVFSSCHRKPDAKPENFITQIETTPTETASRKTSDMVLKRKQTKDCPQRKWYPLRPKKINLDT
notes: Nsl1 of the hMis12 complex, human; source: HEp-2 or U2OS cells, transfected by electroporation, in living cells; not shown: EGFP (short linker)

cross-correlation, measured (%) (Nnf1-(s)-mCherry): 31%
cross-correlation, measured (%) (CENP-T-(s)-mCherry): 19%
cross-correlation, measured (%) (mCherry-(s)-CENP-K): 18%
cross-correlation, measured (%) (mCherry-(s)-CENP-T): 18%
B5: hMis12-(s)-EGFP (natural protein, human, UniProt Q9H081 1-205, looked up)
chain: MSVDPMTYEAQFFGFTPQTCMLRIYIAFQDYLFEVMQAVEQVILKKLDGIPDCDISPVQIRKCTEKFLCFMKGHFDNLFSKMEQLFLQLILRIPSNILLPEDKCKETPYSEEDFQHLQKEIEQLQEKYKTELCTKQALLAELEEQKIVQAKLKQTLTFFDELHNVGRDHGTSDFRESLVSLVQNSRKLQNIRDNVEKESKRLKIS
notes: hMis12, human; source: HEp-2 or U2OS cells, transfected by electroporation, in living cells; not shown: EGFP (short linker)
